Numbered stars: 1 amine (or outer) side, 2 acyl side, 3 side chain; on linkers, the order of the positions; unused ones are H or OH. Bridge positions count the residues as written; N and C are the ends. TRITC = tetramethylrhodamine dye; Cysteamine = C(CS[*:2])N[*:1]; Ahx = NCCCCCC(=O)O
What was measured:
fibrin fragment DD(E) = fibrin fragment DD(E) (Homo sapiens, UniProt P02671+P02675+P02679); assay: Direct binding to DD(E) by fluorescence anisotropy; conditions: serial dilution of DD(E)
Description: The binding constants of the TRITC-Tn6-MDS probe and its activated cyclic form were then measured with the fibrin fragment DD(E). A serial dilution of the DD(E) protein was prepared and then mixed with the two probes. […] Therefore, the disulfide linkage of this probe can act as a switch for binding.

PDI [1] = molecular target: T1, PDI (Homo sapiens, UniProt P07237); assay: LC-MS analysis of conversion of TRITC-Tn6-MDS to cyclized form; type: biochemical
T1 sequence (P07237 18-508, species assumed): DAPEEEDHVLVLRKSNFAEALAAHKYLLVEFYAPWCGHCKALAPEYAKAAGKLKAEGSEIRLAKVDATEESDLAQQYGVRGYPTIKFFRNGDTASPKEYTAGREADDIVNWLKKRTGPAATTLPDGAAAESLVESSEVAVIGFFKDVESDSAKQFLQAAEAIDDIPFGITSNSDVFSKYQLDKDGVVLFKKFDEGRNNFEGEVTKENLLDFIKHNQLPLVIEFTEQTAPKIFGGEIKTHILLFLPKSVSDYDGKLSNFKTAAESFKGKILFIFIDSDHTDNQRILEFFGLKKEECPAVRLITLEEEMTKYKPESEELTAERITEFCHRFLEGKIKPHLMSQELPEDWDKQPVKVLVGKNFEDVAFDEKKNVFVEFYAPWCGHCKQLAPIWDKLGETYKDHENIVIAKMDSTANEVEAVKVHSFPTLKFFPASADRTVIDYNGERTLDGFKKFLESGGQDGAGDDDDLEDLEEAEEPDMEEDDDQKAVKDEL
Description: This mixed disulfide (MDS) probe, denoted as TRITC-Tn6-MDS, was then tested to determine whether it could be recognized as a substrate by PDI. Conversion of the probe from the mixed-disulfide (MDS) form to the cyclized form was followed by LC-MS under three sets of reaction conditions (PDI alone; DTT alone; and PDI+DTT). The assay buffer for these experiments was 50 mM TRIS, 100 mM NaCl, 2 mM CaCl, and 0.1% Triton X-100.

PDI [2] = molecular target: T1, PDI; assay: Real-time fluorescence anisotropy assay of TRITC-Tn6-MDS activation in presence of DD(E); type: biochemical; conditions: only when both PDI and DTT are present simultaneously; 2 μM DD(E)
Description: These experiments were conducted in the same assay buffer as was used for the LC-MS experiment described above.

[3] = molecular target: DD(E) (soluble protein fragment of fibrin) (Homo sapiens, UniProt P02671+P02675+P02679); conditions: known value used for the competition assay; read-out: dissociation constant (Kd) of the TRITC-Tn6 probe for DD(E), known value; cited from earlier work
Sequence of DD(E) (soluble protein fragment of fibrin) (P02671 130-216): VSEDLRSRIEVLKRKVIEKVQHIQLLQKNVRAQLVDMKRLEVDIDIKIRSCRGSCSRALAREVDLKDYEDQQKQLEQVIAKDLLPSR
Sequence of DD(E) (soluble protein fragment of fibrin) (P02675 164-491): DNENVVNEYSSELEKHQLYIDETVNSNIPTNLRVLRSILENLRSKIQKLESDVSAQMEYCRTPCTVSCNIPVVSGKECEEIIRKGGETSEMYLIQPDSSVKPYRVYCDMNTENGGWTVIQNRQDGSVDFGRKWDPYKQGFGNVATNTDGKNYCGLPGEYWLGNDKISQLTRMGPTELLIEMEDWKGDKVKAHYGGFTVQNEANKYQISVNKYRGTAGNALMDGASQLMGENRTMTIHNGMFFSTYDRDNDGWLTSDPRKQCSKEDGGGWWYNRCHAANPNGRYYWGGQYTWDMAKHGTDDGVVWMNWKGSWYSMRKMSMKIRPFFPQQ
Sequence of DD(E) (soluble protein fragment of fibrin) (P02679 114-432): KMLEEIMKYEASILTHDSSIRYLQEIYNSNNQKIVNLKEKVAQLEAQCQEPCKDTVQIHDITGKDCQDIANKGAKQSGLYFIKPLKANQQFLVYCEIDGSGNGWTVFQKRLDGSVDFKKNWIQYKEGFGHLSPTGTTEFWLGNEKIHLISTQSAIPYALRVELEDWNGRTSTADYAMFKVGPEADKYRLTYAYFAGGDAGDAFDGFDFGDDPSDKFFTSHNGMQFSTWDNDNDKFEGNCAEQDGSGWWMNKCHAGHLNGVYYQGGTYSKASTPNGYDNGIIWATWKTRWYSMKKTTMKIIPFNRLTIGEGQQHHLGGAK
Sequence of DD(E) (soluble protein fragment of fibrin) (P02671 36-97): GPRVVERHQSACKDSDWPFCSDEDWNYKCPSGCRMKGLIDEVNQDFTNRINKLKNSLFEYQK
Sequence of DD(E) (soluble protein fragment of fibrin) (P02675 45-152): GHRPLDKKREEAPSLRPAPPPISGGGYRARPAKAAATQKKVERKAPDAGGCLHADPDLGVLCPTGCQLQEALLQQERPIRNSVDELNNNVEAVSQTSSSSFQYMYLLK
Sequence of DD(E) (soluble protein fragment of fibrin) (P02679 27-88): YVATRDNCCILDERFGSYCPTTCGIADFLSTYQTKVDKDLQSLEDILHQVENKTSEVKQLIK

Sequence of fibrin fragment DD(E) (P02671 130-216): as the sequence (P02671 130-216) above
Sequence of fibrin fragment DD(E) (P02675 164-491): as the sequence (P02675 164-491) above
Sequence of fibrin fragment DD(E) (P02679 114-432): as the sequence (P02679 114-432) above
Sequence of fibrin fragment DD(E) (P02671 36-97): as the sequence (P02671 36-97) above
Sequence of fibrin fragment DD(E) (P02675 45-152): as the sequence (P02675 45-152) above
Sequence of fibrin fragment DD(E) (P02679 27-88): as the sequence (P02679 27-88) above

TRITCAha -QWECPYGLCWIQ-NH2 ({TRITC-Ahx}-QWEC(Cysteamine)PYGLC(Cysteamine)WIQ-NH2) [TRITC-Tn6-MDS, linear optical probe; N-terminal tetramethylrhodamine via 6-aminohexanoic acid linker; two cysteines protected as mixed disulfides with cystamine]
Kd for DD(E) relative to that of the cyclic form (fibrin fragment DD(E)): roughly 20 fold
conversion of mixed-disulfide form to cyclized form (PDI [1]; PDI alone): does not promote cyclization
conversion of mixed-disulfide form to cyclized form (PDI [1]; PDI in the presence of DTT, compared to DTT alone): rapid conversion
activation of the probe (cyclization and binding to DD(E)) (PDI [2]): efficiently activated

TRITC-Tn6: fluorescent peptide structurally similar to EP-2104R that binds the same site on DD(E) ({TRITC-Ahx}-QWECPYGLCWIQ-NH2; disulfide 4-9 (inferred))
Kd [3]: 510 nM

Source: patent publication US10471163B2, “Activatable fibrin-binding probes” (priority 2013, dated 2019)
